# Test results reported in patent US20240376170A1 (BRIGHT PEAK THERAPEUTICS, published 2024).
# Bridges are numbered along the chain shown (N, C = ends). [ ]: non-standard residue; d: D form. Ygp = O-(8x polyethylene glycol-amino)-tyrosine (Tyr, amino-capped PEG8); Yn3 = O-(9x polyethylene glycol-azido)-tyrosine (Tyr, azide-capped PEG9); hSer = N[C@@H](CCO)C(=O)O; Nle = CCCC[C@H](N)C(=O)O
# T1: IL-2 receptor βγ complex (human, UniProt P14784 27-551; P31785 23-369)
# T1 sequence (looked up) 1: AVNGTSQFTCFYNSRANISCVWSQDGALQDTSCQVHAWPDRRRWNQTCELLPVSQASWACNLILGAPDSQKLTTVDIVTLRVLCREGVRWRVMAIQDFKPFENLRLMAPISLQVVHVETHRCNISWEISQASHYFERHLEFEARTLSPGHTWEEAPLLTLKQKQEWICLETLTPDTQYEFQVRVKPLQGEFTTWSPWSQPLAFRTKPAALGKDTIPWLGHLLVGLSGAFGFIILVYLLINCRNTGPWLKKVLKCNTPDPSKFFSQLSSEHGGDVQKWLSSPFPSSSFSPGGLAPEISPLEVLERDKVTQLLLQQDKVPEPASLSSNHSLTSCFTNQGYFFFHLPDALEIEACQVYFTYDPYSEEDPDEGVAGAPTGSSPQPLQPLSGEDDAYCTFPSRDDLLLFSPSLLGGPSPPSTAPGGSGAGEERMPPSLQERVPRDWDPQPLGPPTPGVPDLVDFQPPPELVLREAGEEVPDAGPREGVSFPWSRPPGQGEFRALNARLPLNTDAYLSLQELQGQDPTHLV
# T1 sequence (looked up) 2: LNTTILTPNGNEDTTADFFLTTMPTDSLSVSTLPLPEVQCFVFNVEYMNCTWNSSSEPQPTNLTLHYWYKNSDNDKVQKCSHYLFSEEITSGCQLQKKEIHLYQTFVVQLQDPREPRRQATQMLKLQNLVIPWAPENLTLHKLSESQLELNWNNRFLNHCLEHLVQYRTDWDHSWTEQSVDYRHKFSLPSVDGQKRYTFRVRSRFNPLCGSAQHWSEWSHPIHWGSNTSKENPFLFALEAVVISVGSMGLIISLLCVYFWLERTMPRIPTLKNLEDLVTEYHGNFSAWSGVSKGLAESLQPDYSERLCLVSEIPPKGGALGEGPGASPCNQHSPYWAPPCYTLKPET
# B1: CMP-167, MMP2 cleaved molecule (ligand)
# chain: APTSSSTKKTQLQLEHLLLDLQKILNGINNYKNPKLTR[Nle]L[hSer][Yn3]KF[Ygp][Nle]PKKATELKHLQCLEEELKPLEEVL[hSer]LAQSKNFHLRPRDLISNINVIVLELKGSETTF[hSer]CEYADETATIVEFLNRWITFSQSIISTLT
# modifications: ends and bridges not checked; also: MMP2 cleaved, cleavage site and linker fragments on N-terminus and Lys23 side chain not given here
# B2: CMP-165 (ligand)
# chain: APTSSSTKKTQLQLEHLLLDLQKILNGINNYKNPKLTR[Nle]L[hSer][Yn3]KF[Ygp][Nle]PKKATELKHLQCLEEELKPLEEVL[hSer]LAQSKNFHLRPRDLISNINVIVLELKGSETTF[hSer]CEYADETATIVEFLNRWITFSQSIISTLT
# modifications: bridge N-23; not fully specified (bridges); ends not checked; also: sequence of the cleavable peptide in the bridge not given here
# B3: CMP-164, MMP2 cleaved molecule (ligand)
# chain: APTSSSTKKTQLQLEHLLLDLQKILNGINNYKNPKLTR[Nle]L[hSer][Yn3]KF[Ygp][Nle]PKKATELKHLQCLEEELKPLEEVL[hSer]LAQSKNFHLRPRDLISNINVIVLELKGSETTF[hSer]CEYADETATIVEFLNRWITFSQSIISTLT
# modifications: ends and bridges not checked; also: MMP2 cleaved, cleavage site and linker fragments on N-terminus and Lys23 side chain not given here
# B4: CMP-165, MMP2 cleaved molecule (ligand)
# chain: APTSSSTKKTQLQLEHLLLDLQKILNGINNYKNPKLTR[Nle]L[hSer][Yn3]KF[Ygp][Nle]PKKATELKHLQCLEEELKPLEEVL[hSer]LAQSKNFHLRPRDLISNINVIVLELKGSETTF[hSer]CEYADETATIVEFLNRWITFSQSIISTLT
# modifications: ends and bridges not checked; also: MMP2 cleaved, cleavage site and linker fragments on N-terminus and Lys23 side chain not given here
# B5: CMP-167 (ligand)
# chain: APTSSSTKKTQLQLEHLLLDLQKILNGINNYKNPKLTR[Nle]L[hSer][Yn3]KF[Ygp][Nle]PKKATELKHLQCLEEELKPLEEVL[hSer]LAQSKNFHLRPRDLISNINVIVLELKGSETTF[hSer]CEYADETATIVEFLNRWITFSQSIISTLT
# modifications: bridge N-23; not fully specified (bridges); ends not checked; also: sequence of the cleavable peptide in the bridge not given here
# B6: CMP-164 (ligand)
# chain: APTSSSTKKTQLQLEHLLLDLQKILNGINNYKNPKLTR[Nle]L[hSer][Yn3]KF[Ygp][Nle]PKKATELKHLQCLEEELKPLEEVL[hSer]LAQSKNFHLRPRDLISNINVIVLELKGSETTF[hSer]CEYADETATIVEFLNRWITFSQSIISTLT
# modifications: bridge N-23; not fully specified (bridges); ends not checked; also: sequence of the cleavable peptide in the bridge not given here
# B7: CMP-166, MMP2 cleaved molecule (ligand)
# chain: APTSSSTKKTQLQLEHLLLDLQKILNGINNYKNPKLTR[Nle]L[hSer][Yn3]KF[Ygp][Nle]PKKATELKHLQCLEEELKPLEEVL[hSer]LAQSKNFHLRPRDLISNINVIVLELKGSETTF[hSer]CEYADETATIVEFLNRWITFSQSIISTLT
# modifications: ends and bridges not checked; also: MMP2 cleaved, cleavage site and linker fragments on N-terminus and Lys23 side chain not given here
# Target: T1, IL-2 receptor βγ complex
# Test: cell-based or functional assay
row,Binder,"Average EC50, pSTAT5 Assay (T cells)"
1,B1,5.31 nM
2,B2,57.4 nM
3,B3,0.61 nM
4,B4,1.42 nM
5,B5,176 nM
6,B6,31.4 nM
7,B7,4.36 nM
